Assay results published in paper PMC9057587 (The Journal of Clinical Investigation, 2022).

Molecular target: T1, human Tim-3 (T cell immunoglobulin mucin domain-containing protein 3) (Homo sapiens, UniProt Q8TDQ0)
T1 construct: human Tim-3 (HAVCR2), injected as the SPR analyte; I surmise the monomeric IgV domain; also called hTim3; hTim-3
Experiment: SPR; Biacore T200, 37°C; antibody captured on a CM4 chip with preimmobilized anti-human IgG Fc pAb; human Tim-3 injected as analyte, single-cycle kinetics, 5-membered 5-fold dilution series, 1 uM top; 10 mM HEPES, 150 mM NaCl, 0.05% Tween 20, pH 7.4, 1 g/L BSA; 1:1 Langmuir model with mass transport
Settings: both partners purified

T1 sequence (Q8TDQ0 22-301): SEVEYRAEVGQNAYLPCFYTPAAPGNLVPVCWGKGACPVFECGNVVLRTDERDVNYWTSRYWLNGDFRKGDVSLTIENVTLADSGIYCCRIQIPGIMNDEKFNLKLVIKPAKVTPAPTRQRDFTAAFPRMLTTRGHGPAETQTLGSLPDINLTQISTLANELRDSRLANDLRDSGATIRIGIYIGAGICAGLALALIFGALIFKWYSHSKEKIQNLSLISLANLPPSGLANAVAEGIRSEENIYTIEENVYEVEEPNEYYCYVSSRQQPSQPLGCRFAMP

Kd: 1.8 nM | koff: 0.0046 s⁻¹ | kon: 2.6e+06 M⁻¹ s⁻¹
B1: aTim-3.18 monoclonal antibody (antibody, V domains shown)
VH: QLQLQESGPGLVKPSETLSLTCTVSGGSISSRSYYWGWIRQPPGKGLEWIGSIYYSGFTYYQPSLKSRVTISVDTSKNQFSLKLSSVTAADTAVYYCATGGPYGDYAHWFEPWGQGTLVTVSS
VL: not shown
notes: Whole mAb from Bristol Myers Squibb, captured in SPR through an anti-human IgG Fc antibody; The isotype-matched control was an IgG4, so I surmise the mAb is a human IgG4; source: Expi293, transient transfection, purified (Protein A MabSelect SuRe)
